Patent US7011951

Assays:
[1] = target: T1, AcinusS (D/A) resulting from substitution of Asp^1093 with Ala
T1 chain: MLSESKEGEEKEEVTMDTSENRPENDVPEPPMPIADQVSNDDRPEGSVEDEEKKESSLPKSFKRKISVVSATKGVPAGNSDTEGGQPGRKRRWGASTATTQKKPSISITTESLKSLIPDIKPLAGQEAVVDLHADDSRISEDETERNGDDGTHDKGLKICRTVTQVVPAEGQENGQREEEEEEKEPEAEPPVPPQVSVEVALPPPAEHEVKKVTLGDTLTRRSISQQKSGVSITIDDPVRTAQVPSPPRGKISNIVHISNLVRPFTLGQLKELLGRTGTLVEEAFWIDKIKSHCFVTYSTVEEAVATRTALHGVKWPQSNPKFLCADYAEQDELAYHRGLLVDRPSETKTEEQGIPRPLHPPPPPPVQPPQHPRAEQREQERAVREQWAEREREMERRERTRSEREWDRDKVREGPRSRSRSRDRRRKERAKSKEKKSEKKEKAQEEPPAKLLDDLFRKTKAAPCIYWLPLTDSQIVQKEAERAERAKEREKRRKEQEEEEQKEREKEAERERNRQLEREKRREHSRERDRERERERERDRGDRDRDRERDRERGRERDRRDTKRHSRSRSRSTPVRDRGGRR

human AcinusS = target: T2, human AcinusS
T2 chain: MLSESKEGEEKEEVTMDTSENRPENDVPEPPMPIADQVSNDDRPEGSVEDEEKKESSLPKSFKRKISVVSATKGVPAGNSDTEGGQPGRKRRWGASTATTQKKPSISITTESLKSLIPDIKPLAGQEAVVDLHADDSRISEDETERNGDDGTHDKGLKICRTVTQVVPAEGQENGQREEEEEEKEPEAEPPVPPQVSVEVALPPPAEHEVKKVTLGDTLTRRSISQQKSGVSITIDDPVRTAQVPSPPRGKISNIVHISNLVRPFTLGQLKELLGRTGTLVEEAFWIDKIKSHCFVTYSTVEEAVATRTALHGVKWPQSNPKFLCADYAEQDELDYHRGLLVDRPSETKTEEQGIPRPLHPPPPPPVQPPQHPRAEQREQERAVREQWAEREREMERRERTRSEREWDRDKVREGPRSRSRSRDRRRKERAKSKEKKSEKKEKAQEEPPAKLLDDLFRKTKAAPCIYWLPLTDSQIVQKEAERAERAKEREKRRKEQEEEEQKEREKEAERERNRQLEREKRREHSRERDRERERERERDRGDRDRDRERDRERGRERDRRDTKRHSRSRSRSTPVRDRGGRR

B1: recombinant active human caspase-3 (protein)
chain: SGISLDNSYKMDYPEMGLCIIINNKNFHKSTGMTSRSGTDVDAANLRETFRNLKYEVRNKNDLTREEIVELMRDVSKEDHSKRSSFVCVLLSHGEEGIIFGTNGPVDLKKITNFFRGDRCRSLTGKPKLFIIQACRGTELDCGIETDSGVDDDMACHKIPVEADFLYAYSTAPGYYSWRNSKDGSWFIQSLCAMLKQYADKLEFMHILTRVNRKVATEFESFSFDATFHAKKQIPCIVSMLTKELYFYH
- in vitro cleavage by caspase-3 (SDS-PAGE, immunoblot) [1]: a mutation of substituting Asp^1093 with Ala (D/A) abolished the in vitro cleavage of Acinus by caspase-3
- cleavage of AcinusS by caspase-3 (SDS-PAGE, immunoblot; microsequencing of the cleavage product) (human AcinusS): human AcinusS was actually cleaved with caspase-3 in vivo, and the cleavage site was determined to be the Asp^1093 of DELD^1093
